Substrate: CCn1c(=NN=c2sc3cc(S(=O)(=O)O)ccc3n2CC)sc2cc(S(=O)(=O)O)ccc21
Experiment: purified protein
Type: biochemical, Bacillus subtilis
Details: no H2O2, applied potential −0.190 V, aerobic (O2), pH 7.6, 298 K, 20 mM TRIS-HCl, 200 mM KCl, 25.0 °C

B1: BsDyP (Bacillus subtilis subsp. subtilis str. 168) (protein)
chain: IGASGLGGLAPLVQTAAKPSKKDEKEEEQIVPFYGKHQAGITTAHQTYVYFAALDVTAKDKSDIITLFRNWTSLTQMLTSGKKMSAEQRNQYLPPQDTGESADLSPSNLTVTFGFGPGFFEKDGKDRFGLKSKKPKHLAALPAMPNDNLDEKQGGGDICIQVCADDEQVAFHALRNLLNQAVGTCEVRFVNKGFLSGGKNGETPRNLFGFKDGTGNQSTKDDTLMNSIVWIQSGEPDWMTGGTYMAFRKIKMFLEVWDRSSLKDQEDTFGRRKSSGAPFGQKKETDPVKLNQIPSNSHVSLAKSTGKQILRRAFSYTEGLDPKTGYMDAGLLFISFQKNPDNQFIPMLKALSAKDALNEYTQTIGSALYACPGGCKKGEYIAQRLLES
notes: signal (Tat) peptide deleted; plasmid pVB4; expressed in E. coli Tuner; purified
Km: 1155 ± 100 µM
kcat: 18 ± 1 s⁻¹
kcat/Km: 16000 M⁻¹ s⁻¹
